{
  "source": "paper PMC5053136",
  "about": "(Acta Crystallographica. Section D, Structural Biology, 2016)",
  "proteins": {"B1": {"name": "D5_(323–785), the D5N and helicase domains of the Vaccinia virus helicase–primase D5 (domain or fragment)", "chain": "GNKLFNIAQRILDTNSVLLTERGDYIVWINNSWKFNSEEPLITKLILSIRHQLPKEYSSELLCPRKRKTVEANIRDMLVDSVETDTYPDKLPFKNGVLDLVDGMFYSGDDAKKYTCTVSTGFKFDDTKFVEDSPEMEELMNIINDIQPLTDENKKNRELYEKTLSSCLCGATKGCLTFFFGETATGKSTTKRLLKSAIGDLFVETGQTILTDVLDKGPNPFIANMHLKRSVFCSELPDFACSGSKKIRSDNIKKLTEPCVIGRPCFSNKINNRNHATIIIDTNYKPVFDRIDNALMRRIAVVRFRTHFSQPSGREAAENNDAYDKVKLLDEGLDGKIQNNRYRFAFLYLLVKWYKKYHVPIMKLYPTPEEIPDFAFYLKIGTLLVSSSVKHIPLMTDLSKKGYILYDNVVTLPLTTFQQKISKYFNSRLFGHDIESFINRHKKFANVSDEYLQYIFIEDISSP", "notes": "also called D5R fragment"}},
  "target": "the molecule itself",
  "test": "SAXS with online ion-exchange chromatography (IEC-SAXS)",
  "data": [
    {"protein": "B1", "values": [
      {"measurement": "stoichiometry N", "value": 6}
    ]}
  ]
}
